According to patent publication US12605469B2, “Tumor specific antibody conjugates and uses therefor” (The University of North Carolina at Charlotte, priority 2019, dated 2026):

Target: T1, human MUC1, tumor-associated form (tMUC), on tumor cells and tumor tissue (human, UniProt P15941 24-1255, tumor-associated (aberrant) glycosylation, not specified further)
T1 construct: also called tMUC1; tumor-associated glycosylated MUC1
Test: fluorescence microscopy of CAR T cells co-incubated with HPAFII cells

T1 sequence (P15941 other isoform, or with tags, fused parts or gaps limits assumed): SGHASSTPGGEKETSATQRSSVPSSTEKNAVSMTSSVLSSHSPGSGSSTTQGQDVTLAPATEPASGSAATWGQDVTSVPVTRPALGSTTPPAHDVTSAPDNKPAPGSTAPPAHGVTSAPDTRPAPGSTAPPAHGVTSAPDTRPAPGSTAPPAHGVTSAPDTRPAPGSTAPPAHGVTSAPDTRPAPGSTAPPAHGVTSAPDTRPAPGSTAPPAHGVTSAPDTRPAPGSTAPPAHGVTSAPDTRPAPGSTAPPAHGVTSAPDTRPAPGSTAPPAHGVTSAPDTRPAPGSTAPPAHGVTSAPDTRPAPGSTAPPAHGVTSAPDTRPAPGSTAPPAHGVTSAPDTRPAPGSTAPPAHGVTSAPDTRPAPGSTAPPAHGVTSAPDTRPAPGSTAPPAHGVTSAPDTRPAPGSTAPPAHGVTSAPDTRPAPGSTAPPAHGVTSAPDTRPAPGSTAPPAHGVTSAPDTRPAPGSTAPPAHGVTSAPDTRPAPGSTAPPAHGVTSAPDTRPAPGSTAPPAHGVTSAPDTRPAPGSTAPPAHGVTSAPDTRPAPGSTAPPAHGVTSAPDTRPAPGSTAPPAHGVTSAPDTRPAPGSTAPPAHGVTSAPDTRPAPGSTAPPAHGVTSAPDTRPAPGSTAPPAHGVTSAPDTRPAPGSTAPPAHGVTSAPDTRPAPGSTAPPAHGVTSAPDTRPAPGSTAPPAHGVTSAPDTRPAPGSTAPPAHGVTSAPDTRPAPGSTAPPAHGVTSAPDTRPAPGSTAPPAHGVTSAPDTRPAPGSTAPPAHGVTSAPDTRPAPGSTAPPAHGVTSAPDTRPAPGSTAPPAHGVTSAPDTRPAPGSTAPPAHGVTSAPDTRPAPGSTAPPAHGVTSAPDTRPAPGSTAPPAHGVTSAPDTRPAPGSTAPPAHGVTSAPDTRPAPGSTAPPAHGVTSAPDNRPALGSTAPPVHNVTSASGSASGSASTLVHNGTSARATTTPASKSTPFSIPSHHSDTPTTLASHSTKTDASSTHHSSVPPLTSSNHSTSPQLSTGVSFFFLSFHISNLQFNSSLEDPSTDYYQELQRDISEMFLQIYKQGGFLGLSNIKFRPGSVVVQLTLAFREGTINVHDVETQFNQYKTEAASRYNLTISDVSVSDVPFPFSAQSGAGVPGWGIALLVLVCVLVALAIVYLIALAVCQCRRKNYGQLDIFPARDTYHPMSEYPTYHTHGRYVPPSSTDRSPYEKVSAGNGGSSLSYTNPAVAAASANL

B1: TAB-28z-mKATE chimeric antigen receptor (2nd generation), on T cells (receptor)
chain: EVQLQQSGGERATPGASVKMSCKTSGYTFTNYWMHWVKQRPGQGLEWIGYINPSSGYTQYNQKFKDKATLTADKSSSTAYIQLSSLTSEDSAVYYCSTYYGDYLFPYWGQGTLVTVSAGGGGSGGGGSGGGGSDVLMTQTPLSLPVSLGDQASISCRSSQDIVYGNGNTYLEWYLQKPGQSPKLLIYKVSNRFSGVPDRFSGSGSGTDFTLKISRVEAEDLGVYYCFQGSHVPYTFGGGTKLEIKRAAAIEVEQKLISEEDLLDNEKSNGTIIHVKGKHLCPSPLFPGPSKPFWVLVVVGGVLACYSLLVTVAFIIFWVRSKRSRLLHSDYMNMTPRRPGPTRKHYQPYAPPRDFAAYRSRVKFSRSADAPAYQQGQNQLYNELNLGRREEYDVLDKRRGRDPEMGGKPRRKNPQEGLYNELQKDKMAEAYSEIGMKGERRRGKGHDGLYQGLSTATKDTYDALHMQALPPRARGAAAGAGGAGRMVSELIKENMHMKLYMEGTVNNHHFKCTSEGEGKPYEGTQTMRIKAVEGGPLPFAFDILATSFMYGSKTFINHTQGIPDFFKQSFPEGFTWERVTTYEDGGVLTATQDTSLQDGCLIYNVKIRGVNFPSNGPVMQKKTLGWEASTETLYPADGGLEGRADMALKLVGGGHLICNLKTTYRSKKPAKNLKMPGVYYVDRRLERIKEADKETYVEQHEVAVARYCDLPSKLGHR
notes: Expressed on the surface of T cells or Jurkat cells; also called CAR-mKATE; CAR-mKate fusion protein
binding result: binds
